B1: VAMP4 (parent)
chain: FLRGPSGPRFGPRNDKIKHVQNQV
B2: MCOLN1 (parent)
chain: EEEDLRRRLKYFFMSPCDKFRAKG

Variants of: B1
Assay: protein stability index of a GFP-peptide fusion (GPS, HEK-293T) (PSI 1-6); higher = more stable
Details: c terminus: a fixed tail appended
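Note: lentivirally expressed fusions sorted by FACS into six bins by GFP to DsRed ratio, PSI derived from sequencing read proportions per bin multiplied by bin number.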

| Variant | protein stability index |
| --- | --- |
| FLRGPSGPRFGPRNDKHKHVQNQV [I17H] | 3.42 |
| FLRGPSGPRFGPRNDKLKHVQNQV [I17L] | 2.78 |
| FLRGPSGPRFGPRNDKQKHVQNQV [I17Q] | 2.72 |
| FLRGPSGPRFGPRNDKEKHVQNQV [I17E] | 4.11 |
| FLRGPSGPDFGPRNDKIKHVQNQV [R9D] | 2.91 |
| FLRGPSGPWFGPRNDKIKHVQNQV [R9W] | 2.93 |
| FLRGPSGPLFGPRNDKIKHVQNQV [R9L] | 2.06 |
| FLRGPSGPKFGPRNDKIKHVQNQV [R9K] | 3.87 |
| FLRGPSGPGFGPRNDKIKHVQNQV [R9G] | 2.49 |
| FLRGPSGPQFGPRNDKIKHVQNQV [R9Q] | 2.93 |
| FLRGPSGPPFGPRNDKIKHVQNQV [R9P] | 2.49 |
| FLRGPSGPTFGPRNDKIKHVQNQV [R9T] | 2.75 |
| FLRGPSGPVFGPRNDKIKHVQNQV [R9V] | 2.18 |
| FLRGPSGPRFGPLNDKIKHVQNQV [R13L] | 2.02 |
| FLRGPSGPRFGPANDKIKHVQNQV [R13A] | 2.32 |
| FLRGPSGPRFGPPNDKIKHVQNQV [R13P] | 3.06 |
| FLRGPSGPRFGPKNDKIKHVQNQV [R13K] | 2.58 |
| FLRGPSGPRFGPMNDKIKHVQNQV [R13M] | 2.89 |
| FLRGPSGPRFGPHNDKIKHVQNQV [R13H] | 2.17 |
| FLRGPPGPRFGPRNDKIKHVQNQV [S6P] | 2.79 |
| FLRGPRGPRFGPRNDKIKHVQNQV [S6R] | 2.92 |

| Variant | protein stability index |
| --- | --- |
| FLRGPQGPRFGPRNDKIKHVQNQV [S6Q] | 2.56 |
| FLRGPFGPRFGPRNDKIKHVQNQV [S6F] | 2.64 |
| FLRGPYGPRFGPRNDKIKHVQNQV [S6Y] | 2.11 |
| FLRGPDGPRFGPRNDKIKHVQNQV [S6D] | 2.95 |
| FLRGPLGPRFGPRNDKIKHVQNQV [S6L] | 1.54 |
| FLRGPIGPRFGPRNDKIKHVQNQV [S6I] | 1.97 |
| FLRGPSGPRFGPRNDKIKHRQNQV [V20R] | 3.26 |
| FLRGPSGPRFGPRNDKIKHDQNQV [V20D] | 3.72 |
| FLRGPSGPRFGPRNDKIKHYQNQV [V20Y] | 2.46 |
| FLRGPSGPRFGPRNDKIKHLQNQV [V20L] | 2.9 |
| FLRGPSGPRFGPRNDKIKHEQNQV [V20E] | 3.91 |
| FLRGPSGPRFGPRNDKIKHCQNQV [V20C] | 2.15 |
| FLRGPSGPRFGPRNDKIKHAQNQV [V20A] | 2.63 |
| FLRGPSGPRFGPRNDKIKHNQNQV [V20N] | 2.91 |
| FLCGPSGPRFGPRNDKIKHVQNQV [R3C] | 2.77 |
| FLKGPSGPRFGPRNDKIKHVQNQV [R3K] | 3.04 |
| FLEGPSGPRFGPRNDKIKHVQNQV [R3E] | 3.56 |
| FLHGPSGPRFGPRNDKIKHVQNQV [R3H] | 3.17 |
| FLIGPSGPRFGPRNDKIKHVQNQV [R3I] | 2.24 |
| FLRGPSGPRFGPRNDKIKHVCNQV [Q21C] | 1.68 |
| FLRGPSGPRFGPRNDKIKHVSNQV [Q21S] | 2.47 |

| Variant | protein stability index |
| --- | --- |
| FLRGPSGPRFGPRNDKIKHVMNQV [Q21M] | 1.85 |
| FLRGPSGPRFGPRNDKIKHVWNQV [Q21W] | 1.41 |
| FLRGPSGPRFGPRNDKIKHVFNQV [Q21F] | 2.42 |
| FLRGPSGPRFGPRNDKIKHVHNQV [Q21H] | 3.2 |
| FLRGPSGPRFGPRNDKIKHVDNQV [Q21D] | 2.93 |
| FLRGPSGPRFGPRNDKIKHVKNQV [Q21K] | 2.81 |
| FLRGPSGPRFGPRNDKIKHVPNQV [Q21P] | 2.91 |
| FLRGPSGPRFGPRNDKIKHVTNQV [Q21T] | 2.29 |
| FLRGPSGPRFGPRNDRIKHVQNQV [K16R] | 2.75 |
| FLRGPSGPRFGPRNDIIKHVQNQV [K16I] | 2.15 |
| FLRGPSGPRFGPRNDPIKHVQNQV [K16P] | 2.76 |
| FLRGPSGPRFGPRNDSIKHVQNQV [K16S] | 2.81 |
| FLRGPSGPRFGPRNDFIKHVQNQV [K16F] | 2.25 |
| FLRGPSGPRFGPRNDEIKHVQNQV [K16E] | 3.18 |
| FLRGPSGPRFGPRNDLIKHVQNQV [K16L] | 2.34 |
| FLRGPSGPRFGPRNDHIKHVQNQV [K16H] | 2.48 |
| FLRGPSGPRFGPRNDGIKHVQNQV [K16G] | 3.33 |
| FLRGQSGPRFGPRNDKIKHVQNQV [P5Q] | 2.98 |
| FLRGASGPRFGPRNDKIKHVQNQV [P5A] | 2.79 |
| FLRGDSGPRFGPRNDKIKHVQNQV [P5D] | 3.36 |
| FLRGFSGPRFGPRNDKIKHVQNQV [P5F] | 2.29 |

| Variant | protein stability index |
| --- | --- |
| FLRGYSGPRFGPRNDKIKHVQNQV [P5Y] | 2.04 |
| FSRGPSGPRFGPRNDKIKHVQNQV [L2S] | 3.37 |
| FKRGPSGPRFGPRNDKIKHVQNQV [L2K] | 3.21 |
| FPRGPSGPRFGPRNDKIKHVQNQV [L2P] | 3.18 |
| FVRGPSGPRFGPRNDKIKHVQNQV [L2V] | 1.48 |
| FIRGPSGPRFGPRNDKIKHVQNQV [L2I] | 1.97 |
| FHRGPSGPRFGPRNDKIKHVQNQV [L2H] | 1.95 |
| FTRGPSGPRFGPRNDKIKHVQNQV [L2T] | 2.99 |
| FDRGPSGPRFGPRNDKIKHVQNQV [L2D] | 3.08 |
| FQRGPSGPRFGPRNDKIKHVQNQV [L2Q] | 2.73 |
| FERGPSGPRFGPRNDKIKHVQNQV [L2E] | 3.71 |
| FLRGPSGYRFGPRNDKIKHVQNQV [P8Y] | 2.47 |
| FLRGPSGTRFGPRNDKIKHVQNQV [P8T] | 2.71 |
| FLRGPSGVRFGPRNDKIKHVQNQV [P8V] | 2.54 |
| FLRGPSGIRFGPRNDKIKHVQNQV [P8I] | 2.53 |
| FLRGPSGWRFGPRNDKIKHVQNQV [P8W] | 1.79 |
| FLRGPSGARFGPRNDKIKHVQNQV [P8A] | 2.62 |
| FLRGPSGFRFGPRNDKIKHVQNQV [P8F] | 2.28 |
| FLRGPSGERFGPRNDKIKHVQNQV [P8E] | 3.19 |

Variants of: B2
Assay: as above
Details: c terminus: a fixed tail appended

| Variant | protein stability index |
| --- | --- |
| EEEDLHRRLKYFFMSPCDKFRAKG [R6H] | 1.97 |
| EEEDLRRRKKYFFMSPCDKFRAKG [L9K] | 2.89 |
| EEEDLRRRLKYFFMSPCDKFREKG [A22E] | 2.18 |
| EEEDLRRRLKAFFMSPCDKFRAKG [Y11A] | 2.9 |
| EEEDLRRRLKYFFMSPTDKFRAKG [C17T] | 2.19 |
| EIEDLRRRLKYFFMSPCDKFRAKG [E2I] | 2.21 |
| EEEDLRRRLKYFFMIPCDKFRAKG [S15I] | 1.82 |
| EEEDLRRRLKYFFMFPCDKFRAKG [S15F] | 2.26 |
| EEEDLRRRLKYFFMSPCLKFRAKG [D18L] | 2.32 |
| EEENLRRRLKYFFMSPCDKFRAKG [D4N] | 2.04 |
| EEEDLRRRLKYFFMSPCDKKRAKG [F20K] | 3.58 |
| EEEDLRRRLLYFFMSPCDKFRAKG [K10L] | 2.97 |
